# According to the DeepSol protein solubility set:
# Assay: soluble on expression in E. coli; label from the status in PepcDB or PDB records
row,Sequence,soluble on expression in E. coli
1,MGSDKIHHHHHHMTALRQDIDPNGLLEYSVVYTDRALNHMSKAFQEVMNDLLSNLKTVYNAEAAVIIPGSGTYGMEAVARQLTIDEDCLIIRNGWFSYRWTQILEKGKFAKSSTVLTAERTEDTEAPKPFAPVDIETAVAKIKEDKSAIVYAPHVETSSGIILSEEYIKALSEAVHSVGGLLVIDCIASGCVWLDMKELGIDVLISAPQKGWSSTPCAGLVMLSAAAIKKVESTESNCFSLDLKQWLTIMRAYENGGHAYHATMPTDSLRQFRDAILEAKEIGFDILRDAQWELGNRVRKVLTDKGIESVAAEGFEAPGVVVSYTERDDMHKGSAFAEAGLQIAAGVPLKVGEPDNFKTFRLGLFGLDKLTDIDGTVERFEKALDEVLAK,not soluble
2,MRFKVSKLMAYILRHSPWEFGLEPDEEGFVSIEELVNAVRKVYPWVTEEYIREIVERDEKGRYEIRGNKIRARYGHSYPVILRHEEDKESKVLYHGTVRRNLKGIMREGIKPMKRQYVHLSINYEDAYNTGRRHGEDVVVLIIDAECLRNKGYKILKAGKKVRIVKHVPVDCISGILLEHHHHHH,not soluble
3,MGSDKIHHHHHHMLMDSLQEIICEKRTYTRLYHSHKHAYSQFLFPLEGSIDLETEGRQVKLNPDHFLYIPPQCEHRFRSIGRNECLVLDVPLHAMKIDEYRAGSGIEAALDPFWSSIRYLLTEEAKAGTANSLHMLVQYIKEKLQSHSYASIAYIHSHLFERLTIKKLAEIEHYHPAYYSSWFKKQTGKSPQNYIADLRLEEAKRMLMERNETLTVVSEALGFQNLSSFTRWFTKSTGMPPRLYRNTLYSDKK,not soluble
4,MGSDKIHHHHHHMMYKHVALLVRQDDMSHEEFVDYWQANHTPIAKDIEGVVRYQQVLPTEPAHAEFDGLAELYFETLEDLHEALGSPGSRDYDPTKEIAAKAREDVNNFLAVEERPRIIGEEIVQKDEVDGDTDGLYKHSAFLVRQDDMTHEEFVDYWQTNHTPIAREIEGVVKYNTVIPTDPENAEFDGVAELYFDDIEKLYDALGSEGLRDYAPDRGKAKAAREDVNNFLAIDERPRFIGQEQLVKDEG,not soluble
5,MIITQGPQFQGKASKRLHVMAKPIGAVCNIDCSYCYYLSKEDLLEYKKGCSPQMDDETLETYIRQYIEGQNTPEIIFSWQGGEPTLLGLDYFKKIVEFQKKYQPEGILISNDLQTNGTLLTDKWCEFLAENNFLVGLSIDGPEMLHNAYRTNKAGRGTFKQVMNAVELLHKHNVKFATLTCVNNLTSRNPLEVYRFLRDVVKSPQMQFIPIVEQKTFRTVAPQTEQIAAQLRQGDKRLIPGNKESIMEPWCVSDEAWGNFLIAVFDEWTQHDLGKVFVQYFEASVETWMGRKNPLCTLGEICGKGLAMEHNGDVFACDHYVYPEYKIGNIHNEELDTLAFSRKQQEFGFAKSKTLTTQCQKCEYKFACHGECPKNRFIKTRDGEPGLNYLCAGWKKFFAHADKSIAYILKMLGNPVQHGKYSDAKMQQVHQNAFPTKF,not soluble
6,MNKKTIQDLIPKAMQAIEGVGIVGKDKKFEKVHEGYINALGPTIIQSGLLPTLIFYNKDKRELWLKALYYMEIISNDIDPTAIIQLIIKEGDSESRQEKTLKELEPKAKEWERKILEYAVALKLALRTFVAKESETGNTEQQKGGAQ,not soluble
7,MKLIPFPYPLNIGTDVVHLPRILRLINRPDYFHRFTRRILHEQEQRDFRTRFSLPPPSSGAEKTGLNPITPDMARWLAGRFAAKEAARKAAPAGASSLGWKDVIVRVGEADKGRPEIVYLDPMGCGETGGGRVGKLSISHDGDYVVATVLAAG,not soluble
8,MKSDDLERLEESQEMQQLIHAAKEQYEQEKSVHPPVAYAAFAQNLRERQKDGKMKAKQEPPERETFEVKGGKRSGISPWWLVAACLLGGIIGYGISTTSDRQEAGLERLAVADTVIVVRERVDTVYREVEVPSQPLVASRSTVKSKSTGLTKEHVKQSRKAVQKAEPAFISIEFLQQQQNLPDPNSECYAANGMTVAEGNYPFHLLATVPCK,not soluble
